Biological target: glycosylphosphatidylinositol-anchored avidin test probe (avidin/CD14 fusion) (chicken | human) (UniProt P02701)

Substance: glycosylphosphatidylinositol-anchored avidin test probe (avidin/CD14 fusion) (from UniProt P02701 25-152; P08571 318-375)
- stoichiometry N: 4

Reference: article PMC2766537
